According to IntAct's records for PubMed 20059542:

B1: Proteasomal ubiquitin receptor ADRM1 (Homo sapiens), Q16186 (parent)
chain: MTTSGALFPSLVPGSRGASNKYLVEFRAGKMSLKGTTVTPDKRKGLVYIQQTDDSLIHFCWKDRTSGNVEDDLIIFPDDCEFKRVPQCPSGRVYVLKFKAGSKRLFFWMQEPKTDQDEEHCRKVNEYLNNPPMPGALGASGSSGHELSALGGEGGLQSLLGNMSHSQLMQLIGPAGLGGLGGLGALTGPGLASLLGSSGPPGSSSSSSSRSQSAAVTPSSTTSSTRATPAPSAPAAASATSPSPAPSSGNGASTAASPTQPIQLSDLQSILATMNVPAGPAGGQQVDLASVLTPEIMAPILANADVQERLLPYLPSGESLPQTADEIQNTLTSPQFQQALGMFSAALASGQLGPLMCQFGLPAEAVEAANKGDVEAFAKAMQNNAKPEQKEGDTKDKKDEEEDMSLD

Variants of: B1
Details: with ubql2_human UBQLN2, Q9UHD9
Chain of ubql2_human UBQLN2, Q9UHD9 (Q9UHD9 whole entry): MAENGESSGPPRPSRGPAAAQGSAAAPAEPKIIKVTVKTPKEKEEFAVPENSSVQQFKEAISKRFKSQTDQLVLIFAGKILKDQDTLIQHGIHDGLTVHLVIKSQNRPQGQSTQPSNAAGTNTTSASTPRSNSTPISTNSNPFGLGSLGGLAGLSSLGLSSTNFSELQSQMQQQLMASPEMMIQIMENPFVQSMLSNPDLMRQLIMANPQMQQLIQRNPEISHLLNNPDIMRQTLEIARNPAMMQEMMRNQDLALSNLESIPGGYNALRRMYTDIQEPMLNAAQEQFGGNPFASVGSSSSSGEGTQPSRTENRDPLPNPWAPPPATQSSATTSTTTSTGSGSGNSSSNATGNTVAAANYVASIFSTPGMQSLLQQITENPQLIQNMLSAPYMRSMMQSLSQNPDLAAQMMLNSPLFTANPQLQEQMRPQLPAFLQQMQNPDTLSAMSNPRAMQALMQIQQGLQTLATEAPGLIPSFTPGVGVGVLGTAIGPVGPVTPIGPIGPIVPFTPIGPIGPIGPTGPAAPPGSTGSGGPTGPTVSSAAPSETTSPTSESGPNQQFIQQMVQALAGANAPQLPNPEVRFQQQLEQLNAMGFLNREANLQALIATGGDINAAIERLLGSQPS

Variant | effect of a mutation on the interaction
MTTSGALFPSLVPGSRGASNKYLVEFRAGKMSLKGTTVTPDKRKGLVYIQQTDDSLIHFCWKDRTSGNVEDDLIIRPDDCEFKRVPQCPSGRVYVLKFKAGSKRLFFWMQEPKTDQDEEHCRKVNEYLNNPPMPGALGASGSSGHELSALGGEGGLQSLLGNMSHSQLMQLIGPAGLGGLGGLGALTGPGLASLLGSSGPPGSSSSSSSRSQSAAVTPSSTTSSTRATPAPSAPAAASATSPSPAPSSGNGASTAASPTQPIQLSDLQSILATMNVPAGPAGGQQVDLASVLTPEIMAPILANADVQERLLPYLPSGESLPQTADEIQNTLTSPQFQQALGMFSAALASGQLGPLMCQFGLPAEAVEAANKGDVEAFAKAMQNNAKPEQKEGDTKDKKDEEEDMSLD [F76R] | disrupting interaction

Variants of: B1
Details: with dsk2_yeast DSK2, P48510
Chain of dsk2_yeast DSK2, P48510 (P48510 whole entry): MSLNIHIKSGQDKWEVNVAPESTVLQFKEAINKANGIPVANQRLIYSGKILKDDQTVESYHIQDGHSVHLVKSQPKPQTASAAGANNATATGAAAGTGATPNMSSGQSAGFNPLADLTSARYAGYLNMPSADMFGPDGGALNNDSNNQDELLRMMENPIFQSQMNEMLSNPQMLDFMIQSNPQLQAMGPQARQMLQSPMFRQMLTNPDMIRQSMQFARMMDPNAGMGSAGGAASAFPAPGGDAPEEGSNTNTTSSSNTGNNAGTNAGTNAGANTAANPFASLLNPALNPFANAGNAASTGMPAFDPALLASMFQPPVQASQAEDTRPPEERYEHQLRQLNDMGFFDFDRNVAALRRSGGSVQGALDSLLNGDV

Variant | effect of a mutation on the interaction
MTTSGALFPSLVPGSRGASNKYLVEFRAGKMSLKGTTVTPDKRKGLVYIQQTDDSLIHFCWKDRTSGNVEDDLIIRPDDCEFKRVPQCPSGRVYVLKFKAGSKRLFFWMQEPKTDQDEEHCRKVNEYLNNPPMPGALGASGSSGHELSALGGEGGLQSLLGNMSHSQLMQLIGPAGLGGLGGLGALTGPGLASLLGSSGPPGSSSSSSSRSQSAAVTPSSTTSSTRATPAPSAPAAASATSPSPAPSSGNGASTAASPTQPIQLSDLQSILATMNVPAGPAGGQQVDLASVLTPEIMAPILANADVQERLLPYLPSGESLPQTADEIQNTLTSPQFQQALGMFSAALASGQLGPLMCQFGLPAEAVEAANKGDVEAFAKAMQNNAKPEQKEGDTKDKKDEEEDMSLD [F76R] | disrupting interaction

Variants of: B1
Details: with ubc_human UBC

Variant | effect of a mutation on the interaction
MTTSGALFPSLVPGSRGASNKYLVEFRAGKMSLKGTTVTPDKRKGLVYIQQTDDSLIHFCWKDRTSGNVEDDLIIRPDDCEFKRVPQCPSGRVYVLKFKAGSKRLFFWMQEPKTDQDEEHCRKVNEYLNNPPMPGALGASGSSGHELSALGGEGGLQSLLGNMSHSQLMQLIGPAGLGGLGGLGALTGPGLASLLGSSGPPGSSSSSSSRSQSAAVTPSSTTSSTRATPAPSAPAAASATSPSPAPSSGNGASTAASPTQPIQLSDLQSILATMNVPAGPAGGQQVDLASVLTPEIMAPILANADVQERLLPYLPSGESLPQTADEIQNTLTSPQFQQALGMFSAALASGQLGPLMCQFGLPAEAVEAANKGDVEAFAKAMQNNAKPEQKEGDTKDKKDEEEDMSLD [F76R] | decreasing interaction

Variants of: B1
Details: with ubql2_human UBQLN2, Q9UHD9
Remark: another data set of the same source

Variant | effect of a mutation on the interaction
MTTSGALFPSLVPGSRGASNKYLVEFRAGKMSLKGTTVTPDKRKGLVYIQQTDDSLIHFCWKDRTSGNVEDDLIIFPDDCEFKRVPQCPSGRVYVLKRKAGSKRLFFWMQEPKTDQDEEHCRKVNEYLNNPPMPGALGASGSSGHELSALGGEGGLQSLLGNMSHSQLMQLIGPAGLGGLGGLGALTGPGLASLLGSSGPPGSSSSSSSRSQSAAVTPSSTTSSTRATPAPSAPAAASATSPSPAPSSGNGASTAASPTQPIQLSDLQSILATMNVPAGPAGGQQVDLASVLTPEIMAPILANADVQERLLPYLPSGESLPQTADEIQNTLTSPQFQQALGMFSAALASGQLGPLMCQFGLPAEAVEAANKGDVEAFAKAMQNNAKPEQKEGDTKDKKDEEEDMSLD [F98R] | disrupting interaction

Variants of: B1
Details: with dsk2_yeast DSK2, P48510
Remark: another data set of the same source

Variant | effect of a mutation on the interaction
MTTSGALFPSLVPGSRGASNKYLVEFRAGKMSLKGTTVTPDKRKGLVYIQQTDDSLIHFCWKDRTSGNVEDDLIIFPDDCEFKRVPQCPSGRVYVLKRKAGSKRLFFWMQEPKTDQDEEHCRKVNEYLNNPPMPGALGASGSSGHELSALGGEGGLQSLLGNMSHSQLMQLIGPAGLGGLGGLGALTGPGLASLLGSSGPPGSSSSSSSRSQSAAVTPSSTTSSTRATPAPSAPAAASATSPSPAPSSGNGASTAASPTQPIQLSDLQSILATMNVPAGPAGGQQVDLASVLTPEIMAPILANADVQERLLPYLPSGESLPQTADEIQNTLTSPQFQQALGMFSAALASGQLGPLMCQFGLPAEAVEAANKGDVEAFAKAMQNNAKPEQKEGDTKDKKDEEEDMSLD [F98R] | disrupting interaction

Variants of: B1
Details: with ubc_human UBC
Remark: another data set of the same source

Variant | effect of a mutation on the interaction
MTTSGALFPSLVPGSRGASNKYLVEFRAGKMSLKGTTVTPDKRKGLVYIQQTDDSLIHFCWKDRTSGNVEDDLIIFPDDCEFKRVPQCPSGRVYVLKRKAGSKRLFFWMQEPKTDQDEEHCRKVNEYLNNPPMPGALGASGSSGHELSALGGEGGLQSLLGNMSHSQLMQLIGPAGLGGLGGLGALTGPGLASLLGSSGPPGSSSSSSSRSQSAAVTPSSTTSSTRATPAPSAPAAASATSPSPAPSSGNGASTAASPTQPIQLSDLQSILATMNVPAGPAGGQQVDLASVLTPEIMAPILANADVQERLLPYLPSGESLPQTADEIQNTLTSPQFQQALGMFSAALASGQLGPLMCQFGLPAEAVEAANKGDVEAFAKAMQNNAKPEQKEGDTKDKKDEEEDMSLD [F98R] | decreasing interaction strength

Variants of: B1
Details: with ubc_human UBC
Remark: another data set of the same source

Variant | effect of a mutation on the interaction
MTTSGALFPSLVPGSRGASNKYLVEFRAGKMSLKGTTVTPDKRKGLVYIQQTDDSLIHFCWKDRTSGNVEDDLIIFPDDCEFKRVPQCPSGRVYVLKRKAGSKRLFFWMQEPKTDQDEEHCRKVNEYLNNPPMPGALGASGSSGHELSALGGEGGLQSLLGNMSHSQLMQLIGPAGLGGLGGLGALTGPGLASLLGSSGPPGSSSSSSSRSQSAAVTPSSTTSSTRATPAPSAPAAASATSPSPAPSSGNGASTAASPTQPIQLSDLQSILATMNVPAGPAGGQQVDLASVLTPEIMAPILANADVQERLLPYLPSGESLPQTADEIQNTLTSPQFQQALGMFSAALASGQLGPLMCQFGLPAEAVEAANKGDVEAFAKAMQNNAKPEQKEGDTKDKKDEEEDMSLD [F98R] | decreasing interaction
